Molecular target: ferroportin (human (endogenous in HEK 293)) (UniProt Q9NP59)
Chain of UniProt Q9NP59 (Q9NP59 whole entry): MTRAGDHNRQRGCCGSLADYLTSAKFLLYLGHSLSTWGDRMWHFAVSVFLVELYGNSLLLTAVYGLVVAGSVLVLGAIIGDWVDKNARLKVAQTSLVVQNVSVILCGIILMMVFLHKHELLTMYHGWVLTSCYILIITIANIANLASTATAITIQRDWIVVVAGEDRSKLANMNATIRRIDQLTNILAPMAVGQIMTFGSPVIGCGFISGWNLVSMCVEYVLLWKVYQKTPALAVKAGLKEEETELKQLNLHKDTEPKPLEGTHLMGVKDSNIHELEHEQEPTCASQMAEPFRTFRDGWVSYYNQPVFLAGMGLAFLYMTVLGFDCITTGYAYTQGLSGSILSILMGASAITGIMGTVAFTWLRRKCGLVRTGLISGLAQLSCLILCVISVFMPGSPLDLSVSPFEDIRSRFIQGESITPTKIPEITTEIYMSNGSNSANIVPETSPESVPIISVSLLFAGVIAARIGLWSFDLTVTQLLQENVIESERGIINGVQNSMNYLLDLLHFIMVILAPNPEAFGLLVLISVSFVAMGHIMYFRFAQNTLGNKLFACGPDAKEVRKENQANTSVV

| membrane Fpn of HEK 293 cells with 0.25 μM holo-Tf for 5 to 60 minutes (membrane protein isolation, immunoblot), decrease compared to 0 minutes | membrane Fpn of HEK 293 cells with 500 nM hepcidin for 5 to 60 minutes (membrane protein isolation, immunoblot), decrease compared to holo-Tf treatment | Substance |
| --- | --- | --- |
| 20% | – | holo (iron bound)-transferrin (from UniProt P02787 20-698) (natural protein) |
| – | 70% | hepcidin (peptide) |

From publication PMC9882672
